Source: patent publication US20260275312, “CRISPR NUCLEASE POLYPEPTIDES AND GENE EDITING SYSTEMS COMPRISING SUCH” (ARBOR BIOTECHNOLOGIES, INC., published 2026)
Positions count from the first letter of the chain named.

Experiments:
Nuclease S D844R = molecular target: T1, Nuclease S D844R (synthetic construct, D844R); assay: cell_activity; HEK293T; PAM AACC; conditions: tags: N-term SV40 NLS, XTEN linker + C-term nucleoplasmin NLS
T1 chain: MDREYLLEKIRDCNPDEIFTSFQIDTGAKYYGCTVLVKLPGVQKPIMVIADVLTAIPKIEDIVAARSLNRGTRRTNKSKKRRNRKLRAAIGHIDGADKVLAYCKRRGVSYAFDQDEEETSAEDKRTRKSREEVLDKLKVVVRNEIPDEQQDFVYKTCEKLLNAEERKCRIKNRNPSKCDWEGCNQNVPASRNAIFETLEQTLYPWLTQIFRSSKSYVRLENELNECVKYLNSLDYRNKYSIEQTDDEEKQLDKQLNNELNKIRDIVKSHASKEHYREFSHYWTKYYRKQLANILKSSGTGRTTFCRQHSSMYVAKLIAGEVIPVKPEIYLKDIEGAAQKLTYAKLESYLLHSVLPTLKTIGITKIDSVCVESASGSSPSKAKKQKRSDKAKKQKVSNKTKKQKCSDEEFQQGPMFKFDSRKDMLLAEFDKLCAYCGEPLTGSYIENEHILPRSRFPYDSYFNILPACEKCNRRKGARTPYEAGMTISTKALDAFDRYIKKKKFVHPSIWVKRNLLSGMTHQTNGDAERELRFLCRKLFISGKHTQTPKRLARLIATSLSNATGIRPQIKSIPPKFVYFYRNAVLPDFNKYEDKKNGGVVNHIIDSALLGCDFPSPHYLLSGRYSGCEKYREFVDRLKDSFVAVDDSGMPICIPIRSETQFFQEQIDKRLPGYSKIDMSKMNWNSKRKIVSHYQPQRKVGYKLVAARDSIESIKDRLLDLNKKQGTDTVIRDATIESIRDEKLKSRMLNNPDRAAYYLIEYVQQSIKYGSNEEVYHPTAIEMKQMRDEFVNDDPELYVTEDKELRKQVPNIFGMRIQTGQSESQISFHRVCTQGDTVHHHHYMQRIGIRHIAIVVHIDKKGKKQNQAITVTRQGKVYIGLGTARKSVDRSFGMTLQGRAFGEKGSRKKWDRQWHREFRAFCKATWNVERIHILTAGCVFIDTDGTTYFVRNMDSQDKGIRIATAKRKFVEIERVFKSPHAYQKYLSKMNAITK
Experimental: (§1) HEK293T cells were transfected with plasmids expressing the Nuclease S polypeptides and the gRNAs provided herein following the methods provided in Example 1 above. Gene editing efficiencies were determined by NGS following the methods also provided in Example 1. The NGS results were analyzed also following the methods provided in Example 1 above.
(§2) For each target, indel ratios, referring to the percentage of NGS reads comprising indels, were calculated for the reference and for each variant. The indel ratios used for fold change calculations were the average of two technical replicates. To then calculate fold change in indel ratios at a particular target, the indel ratio for each variant was divided by the indel ratio for the reference. […] Numbering is relative to the reference nuclease of SEQ ID NO: 49 (i.e., without an NLS). […] The average fold change in indel ratio for the D844R variant at all targets was 5.27 times that of the indel ratio for the reference at all targets.

Nuclease S D179R = molecular target: T2, Nuclease S D179R (synthetic construct, D179R); assay: cell_activity; HEK293T; PAM AACC; conditions: tags: N-term SV40 NLS, XTEN linker + C-term nucleoplasmin NLS
T2 chain: T1 chain with D179R, R844D
Experimental: as §1, §2

B1: S AAVS1-T7 RNA guide ; AAVS1-T7 target (S) (ssRNA ; dsDNA)
RNA: GGCUAUAAUCCAUGCUGACCGUUGUAUUCGGAUGGGAGUAAAAGGUUGAGUACACCUGGAAACAAAACGACAUAAAGGUGUUCUCCCAUCUGUGUACAAAGAGCAGAUAUAUGAGUUGAUAAGUAAUAUGUUGCACGUAUGGACUUUGACAGUCUGUACCUCUGCGUGAAAGACAUAUUGCGUUAUUCAUAUAUCUGUGAGUCUGUUCUAAAUUUAAAGGUUUAGGGAA
DNA 1: GGCTATAATCCATGCTGACC
DNA 2: GGTCAGCATGGATTATAGCC
fold change in indel ratio vs reference (Nuclease S D844R): 6.37 fold indel vs reference
fold change in indel ratio vs reference (Nuclease S D179R): 6.38 fold indel vs reference
